Bounds are passed on as bounds.

Test [1] addresses T1, human Ang2 (Beijing Sino Biological) (human, UniProt O15123 19-496, limits assumed).
T1 construct: Antigen of the BLI and SPR experiments; also called angiopoietin 2; ANGPT2
T1 sequence (looked up): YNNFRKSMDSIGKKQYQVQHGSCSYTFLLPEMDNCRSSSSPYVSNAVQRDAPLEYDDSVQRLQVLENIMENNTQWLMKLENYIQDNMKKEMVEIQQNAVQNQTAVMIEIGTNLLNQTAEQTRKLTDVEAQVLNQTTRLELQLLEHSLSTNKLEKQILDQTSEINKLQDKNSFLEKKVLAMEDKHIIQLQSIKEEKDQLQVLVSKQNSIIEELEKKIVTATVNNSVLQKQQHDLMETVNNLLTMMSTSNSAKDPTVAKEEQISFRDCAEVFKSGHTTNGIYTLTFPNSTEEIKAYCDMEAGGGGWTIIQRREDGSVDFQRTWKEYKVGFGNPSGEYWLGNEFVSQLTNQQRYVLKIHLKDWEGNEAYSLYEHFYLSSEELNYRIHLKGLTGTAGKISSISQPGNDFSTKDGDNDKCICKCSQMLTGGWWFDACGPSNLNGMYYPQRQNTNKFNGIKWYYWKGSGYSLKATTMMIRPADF
Put plainly: BLI (ForteBio), bivalent binding, 30 C; * beyond the limit of detection.

Test [2] concerns the target T2, human VEGFC (R&D) (human, UniProt P49767 103-227).
T2 construct: also called hVEGFC; recombinant human VEGFC protein
T2 sequence (looked up): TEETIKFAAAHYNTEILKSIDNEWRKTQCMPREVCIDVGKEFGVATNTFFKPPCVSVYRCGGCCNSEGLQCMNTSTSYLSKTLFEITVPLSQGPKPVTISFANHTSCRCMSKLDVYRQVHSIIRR
The description is as above.

In test [3] the target is T2, human VEGFC (R&D). Put plainly: SPR (Biacore T200), CM5 chip, bivalent binding, 1:1 binding model.
Test [4] has as its target T3, human VEGF165 (R&D) (human, UniProt P15692-4 27-191).
T3 construct: also called VEGFA; human VEGFA
Put plainly: SPR (Biacore T200), CM5 chip, 1:1 binding model.

In test [5] the target is T2, human VEGFC (R&D). The experiment in a line: BLI (ForteBio), bivalent binding, 30 C.
Test [6] has as its target T3, human VEGF165 (R&D). The experiment in a line: BLI (ForteBio), bivalent binding, 30 C.
Test [7] concerns the target T1, human Ang2 (Beijing Sino Biological). Put plainly: SPR (Biacore T200), CM5 chip, bivalent binding, 1:1 binding model.
Test [8] concerns the target T3, human VEGF165 (R&D). Put plainly: BLI (ForteBio), bivalent binding, 30 C; * beyond the limit of detection.
Test [9] concerns the target T1, human Ang2 (Beijing Sino Biological). The experiment in a line: BLI (ForteBio), bivalent binding, 30 C.

T3 sequence (P15692 other isoform, or with tags, fused parts or gaps limits assumed): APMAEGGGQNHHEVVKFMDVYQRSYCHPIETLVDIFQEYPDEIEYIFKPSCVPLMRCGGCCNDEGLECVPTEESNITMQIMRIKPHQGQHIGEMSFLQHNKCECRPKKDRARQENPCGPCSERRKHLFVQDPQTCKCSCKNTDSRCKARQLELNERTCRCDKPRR

B1: IAR044-032 (other)
chain: EVQLLESGGGLVQPGGSLRLSCAASGFALDYYAIGWFRQAPGKGLEGVSCISSGEGSTYYADSVKGRFTISRDNSKNTVYLQMNSLRAEDTAVYYCATDSRGDDVACEGLRRNEYDYWGQGTLVTVSSGGGGGGGGGGSDTGRPFVEMYSEIPEIIHMTEGRELVIPCRVTSPNITVTLKKFPLDTLIPDGKRIIWDSRKGFIISNATYKEIGLLTCEATVNGHLYKTNYLTHRQTNTIIDVVLSPSHGIELSVGEKLVLNCTARTELNVGIDFNWEYPSSKHQHKKLVNRDLKTQSGSEMKKFLSTLTIDGVTRSDQGLYTCAASSGLMTKKNSTFVRVHEKEKTHTCPPCPPCGGGGGGGGGGEVQLVESGGGLVQPGGSLRLSCAASGSSFSPYAMGWYRQAPGKQRELVSATSEGGFTLYADSVKGRFTISRDNSKNTVYLQMNSLRAEDTAVYYCYMHWRGSDPENYWGQGTQVTVSS
notes: No Fc; also called anti-VEGFA/VEGFC/Ang2 multi-specific fusion protein
As to B1, the koff is ≤ 0.0002 s⁻¹ in test [1]; ≤ 0.0002 s⁻¹ with human VEGFC (R&D) [2]; < 1e-05 s⁻¹ with human VEGFC (R&D) [3]; 7.75e-05 s⁻¹ with human VEGF165 (R&D) [4]; 1.92e-05 s⁻¹ in test [7]; ≤ 0.0002 s⁻¹ with human VEGF165 (R&D) [8]. The Kd was < 0.276 nM with human VEGFC (R&D) [3]; 0.203 nM with human VEGF165 (R&D) [4]; ≤ 1.01 nM with human VEGFC (R&D) [5]; ≤ 0.517 nM with human VEGF165 (R&D) [6]; 0.012 nM in test [7]; ≤ 0.22 nM in test [9]. Moreover, the kon in the test with human VEGFC (R&D) [3] stood at 36200 M⁻¹ s⁻¹; with human VEGF165 (R&D) [4], 382000 M⁻¹ s⁻¹; with human VEGFC (R&D) [5] it was 197000 M⁻¹ s⁻¹; with human VEGF165 (R&D) [6], 387000 M⁻¹ s⁻¹; in [7], 1.63e+06 M⁻¹ s⁻¹; in test [9] it was 908000 M⁻¹ s⁻¹.

B2: IAR044-040 (other)
chain: SDTGRPFVEMYSEIPEIIHMTEGRELVIPCRVTSPNITVTLKKFPLDTLIPDGKRIIWDSRKGFIISNATYKEIGLLTCEATVNGHLYKTNYLTHRQTNTIIDVVLSPSHGIELSVGEKLVLNCTARTELNVGIDFNWEYPSSKHQHKKLVNRDLKTQSGSEMKKFLSTLTIDGVTRSDQGLYTCAASSGLMTKKNSTFVRVHEKEKTHTCPPCPPCGGGGGGGGGGEVQLLESGGGLVQPGGSLRLSCAASGFALDYYAIGWFRQAPGKGLEGVSCISSGEGSTYYADSVKGRFTISRDNSKNTVYLQMNSLRAEDTAVYYCATDSRGDDVACEGLRRNEYDYWGQGTLVTVSSGGGGGGGGGGEVQLVESGGGLVQPGGSLRLSCAASGSSFSPYAMGWYRQAPGKQRELVSATSEGGFTLYADSVKGRFTISRDNSKNTVYLQMNSLRAEDTAVYYCYMHWRGSDPENYWGQGTQVTVSS
notes: Trispecific fusion protein: VEGFA mini-Trap, hinge linker, anti-Ang2 VHH, linker, anti-VEGFC VHH
In the case of B2, in the test with human VEGFC (R&D) [5], the Kd came to 0.885 nM, the koff was 0.000209 s⁻¹ and the kon is 236000 M⁻¹ s⁻¹. In the test with human VEGF165 (R&D) [6], this molecule showed a Kd of 0.609 nM, a koff of 0.000293 s⁻¹ and a kon of 481000 M⁻¹ s⁻¹. In test [9], this molecule displayed a Kd of 0.783 nM, a koff of 0.00051 s⁻¹ and a kon of 652000 M⁻¹ s⁻¹.

B3: IAR044-030 (other)
chain: EVQLLESGGGLVQPGGSLRLSCAASGFALDYYAIGWFRQAPGKGLEGVSCISSGEGSTYYADSVKGRFTISRDNSKNTVYLQMNSLRAEDTAVYYCATDSRGDDVACEGLRRNEYDYWGQGTLVTVSSGGGGGGGGGGSDTGRPFVEMYSEIPEIIHMTEGRELVIPCRVTSPNITVTLKKFPLDTLIPDGKRIIWDSRKGFIISNATYKEIGLLTCEATVNGHLYKTNYLTHRQTNTIIDVVLSPSHGIELSVGEKLVLNCTARTELNVGIDFNWEYPSSKHQHKKLVNRDLKTQSGSEMKKFLSTLTIDGVTRSDQGLYTCAASSGLMTKKNSTFVRVHEKESKYGPPCPPCPPCGGGGGGGGGGEVQLVESGGGLVQPGGSLRLSCAASGSSFSPYAMGWYRQAPGKQRELVSATSEGGFTLYADSVKGRFTISRDNSKNTVYLQMNSLRAEDTAVYYCYMHWRGSDPENYWGQGTQVTVSS
notes: as for B1
In the case of B3, the off-rate (koff) in [1] is ≤ 0.0002 s⁻¹; in the test with human VEGFC (R&D) [2], ≤ 0.0002 s⁻¹; in the test with human VEGFC (R&D) [3], < 1e-05 s⁻¹; with human VEGF165 (R&D) [4] it was 6.01e-05 s⁻¹; in test [7] it was 1.76e-05 s⁻¹; with human VEGF165 (R&D) [8], ≤ 0.0002 s⁻¹. The Kd with human VEGFC (R&D) [3] is < 0.234 nM; with human VEGF165 (R&D) [4] it was 0.151 nM; with human VEGFC (R&D) [5] it was ≤ 1.04 nM; with human VEGF165 (R&D) [6], ≤ 0.515 nM; in [7] it was 0.00932 nM; in test [9], ≤ 0.206 nM. Also, the kon with human VEGFC (R&D) [3] was 42800 M⁻¹ s⁻¹; with human VEGF165 (R&D) [4], 399000 M⁻¹ s⁻¹; in the test with human VEGFC (R&D) [5] it was 193000 M⁻¹ s⁻¹; with human VEGF165 (R&D) [6], 389000 M⁻¹ s⁻¹; in test [7] it was 1.89e+06 M⁻¹ s⁻¹; in test [9], 973000 M⁻¹ s⁻¹.

B4: IAR044-039 (other)
chain: SDTGRPFVEMYSEIPEIIHMTEGRELVIPCRVTSPNITVTLKKFPLDTLIPDGKRIIWDSRKGFIISNATYKEIGLLTCEATVNGHLYKTNYLTHRQTNTIIDVVLSPSHGIELSVGEKLVLNCTARTELNVGIDFNWEYPSSKHQHKKLVNRDLKTQSGSEMKKFLSTLTIDGVTRSDQGLYTCAASSGLMTKKNSTFVRVHEKESKYGPPCPPCPPCGGGGGGGGGGEVQLLESGGGLVQPGGSLRLSCAASGFALDYYAIGWFRQAPGKGLEGVSCISSGEGSTYYADSVKGRFTISRDNSKNTVYLQMNSLRAEDTAVYYCATDSRGDDVACEGLRRNEYDYWGQGTLVTVSSGGGGGGGGGGEVQLVESGGGLVQPGGSLRLSCAASGSSFSPYAMGWYRQAPGKQRELVSATSEGGFTLYADSVKGRFTISRDNSKNTVYLQMNSLRAEDTAVYYCYMHWRGSDPENYWGQGTQVTVSS
notes: as for B2
As to B4, in the test with human VEGFC (R&D) [5], the Kd came out at 1.01 nM, the koff stood at 0.000227 s⁻¹ and the kon is 225000 M⁻¹ s⁻¹. In the test with human VEGF165 (R&D) [6], this molecule displayed a Kd of 0.582 nM, a koff of 0.000272 s⁻¹ and a kon of 468000 M⁻¹ s⁻¹. In test [9], the Kd was found to be 0.705 nM, the koff came to 0.000427 s⁻¹ and the kon amounted to 606000 M⁻¹ s⁻¹.

B5: IAR044-038 (other)
chain: SDTGRPFVEMYSEIPEIIHMTEGRELVIPCRVTSPNITVTLKKFPLDTLIPDGKRIIWDSRKGFIISNATYKEIGLLTCEATVNGHLYKTNYLTHRQTNTIIDVVLSPSHGIELSVGEKLVLNCTARTELNVGIDFNWEYPSSKHQHKKLVNRDLKTQSGSEMKKFLSTLTIDGVTRSDQGLYTCAASSGLMTKKNSTFVRVHEKEPKSSPPCPPCPAPCGGGGGGGGGGEVQLLESGGGLVQPGGSLRLSCAASGFALDYYAIGWFRQAPGKGLEGVSCISSGEGSTYYADSVKGRFTISRDNSKNTVYLQMNSLRAEDTAVYYCATDSRGDDVACEGLRRNEYDYWGQGTLVTVSSGGGGGGGGGGEVQLVESGGGLVQPGGSLRLSCAASGSSFSPYAMGWYRQAPGKQRELVSATSEGGFTLYADSVKGRFTISRDNSKNTVYLQMNSLRAEDTAVYYCYMHWRGSDPENYWGQGTQVTVSS
notes: as for B2
With B5, the koff in the test with human VEGFC (R&D) [2] is ≤ 0.0002 s⁻¹; with human VEGF165 (R&D) [6], 0.0003 s⁻¹; in [9] it was 0.000283 s⁻¹. Moreover, the Kd with human VEGFC (R&D) [5] is ≤ 0.92 nM; with human VEGF165 (R&D) [6], 0.668 nM; in [9], 0.475 nM. Further, the kon amounted to 217000 M⁻¹ s⁻¹ with human VEGFC (R&D) [5], 450000 M⁻¹ s⁻¹ with human VEGF165 (R&D) [6] and 597000 M⁻¹ s⁻¹ in [9].

These data come from patent publication EP4628512A1 (Innovent Biologics (Suzhou) Co., Ltd., dated 2025).
